# Laboratory results taken from patent US20240385190A1 (EISAI R AND D MANAGEMENT, published 2024).
# “And” between values parts separate entries of the source, which are not always exact repeats. Equal entries are not always repeated.
# What was measured:
# FN1 = assay: ELISA
# Procedure: (§1) For the anti-human EphA4 monoclonal antibodies produced in Example 1, evaluation of binding activity to various EphA4 was performed according to the following steps. Mouse anti-6-His antibodies (R&D) were coated on the wells of a 96-well plate (Thermo […]). After incubating at room temperature for 1 hour, the wells were blocked at room temperature for 1 hour with 1% Block Ace (KAC). After washing three times with 0.02% Tween 20/PBS, the wells were seeded with human EphA4 extracellular domain-MBP-His protein, human EphA4 ligand binding domain-MBP-His protein, human EphA4 fibronectin III-type domain 1-MBP-His protein, human EphA4 fibronectin III-type domain 2-MBP-His protein, or MBP-His protein (final concentration 1 nM), and this was incubated at room temperature for 1 hour. After washing three times, anti-human EphA4 rabbit monoclonal antibody (10 pg/mL) was added, and this was incubated at room temperature for 1 hour. After washing three times, horseradish peroxidase labeled goat anti-rabbit IgG polyclonal antibody (abcam) was added, and this was incubated at room temperature for 1 hour. After washing three times, TMBZ (3,3′,5,5′-tetramethylbenzidine, KPL) solution was added to the wells, and this was incubated for four and a half minutes at room temperature. Equal amounts of quenching solution (2 N H₂SO₄, FUJIFILM Wako) were added to the wells, and absorbance at 450 nm and 650 nm were read with a microplate reader (Thermo […]).
# [1] = target: T1, human EphA4 extracellular domain-MBP-His protein (human); assay: ELISA
# T1 construct: also called human EphA4 extracellular domain (ECD); Human EphA4 extracellular domain-MBP-His 10
# Procedure: as §1
# FN2 = assay: ELISA
# Procedure: as §1
# MBP = assay: ELISA
# Procedure: as §1
# [2] = target: human EphA4 ligand binding domain-MBP-His protein (human, UniProt P54764 20-209; P0AEX9 29-392 = MBP); assay: ELISA
# Procedure: as §1
# [3] = target: T1, human EphA4 extracellular …; assay: SPR Biacore T200, EphA4 ECD-MBP-His captured by anti-His antibody, antibody as analyte, 1:1 model
# Procedure: (§2) The binding affinity of KPEP11_04, KPEP11_08, KPEP11_10, and KPEP11_18 against human EphA4 was determined by the surface plasmon resonance method (SPR method) employing Biacore T200 (Cytiva). First, an anti-His antibody (Cytiva, 28-9950-56) was diluted to 10 μg/mL with the immobilizing buffer (10 mM sodium acetate, pH 4.5), and immobilized onto a sensor chip CM5 according to the protocol attached to Biacore T200. Immobilization was performed by the amine coupling method employing N-hydroxysuccinimide (NHS) and N-ethyl-N′-(3-dimethylaminopropyl) carbodiimide hydrochloride salt (EDC), and ethanolamine was employed for blocking (sensor chips or immobilizing reagents were all from Cytiva). Human EphA4 extracellular domain-MBP-His 10 was diluted with a running buffer HBS-EP+ (Cytiva), and pumped onto a flow cell for 120 seconds to allow capturing (captured amount of about 3 RU). […] At the end of each observation, 10 mM glycine hydrochloric acid pH 1.5 (60 seconds) and 3 M MgCl₂ (30 seconds) were added to regenerate the sensor chips. Fitting analysis by the 1:1 binding model employing the BIA evaluation software attached to the system was performed against the binding reaction curves obtained to calculate the binding affinity against human EphA4 (KD=kd/ka). The experiment described above was carried out three times, and the mean was calculated for each parameter.
# SEAP = target: T2, SEAP; assay: ELISA
# T2 construct: negative control antigen; also called SEAP-His protein
# Procedure: (§3) For the anti-human EphA4 monoclonal antibodies produced in Example 1, evaluation of binding activity to various EphA4 was performed according to the following steps. Mouse anti-6-His antibodies (R&D) were coated on the wells of a 96-well plate (Thermo […]). After incubating at room temperature for 1 hour, the wells were blocked at 4° C. overnight with 1% Block Ace (KAC). After washing three times with 0.02% Tween 20/PBS, the wells were seeded with mouse EphA4 extracellular domain-SEAP-His protein, rat EphA4 extracellular domain-SEAP-His protein, rabbit EphA4 extracellular domain-SEAP-His protein, monkey EphA4 extracellular domain-SEAP-His protein, human EphA4 extracellular domain-SEAP-His protein, or SEAP-His protein (final concentration 1 nM), and this was incubated at room temperature for 1 hour. After washing three times, anti-human EphA4 rabbit monoclonal antibody (10 pg/mL) was added, and this was incubated at room temperature for about 1 hour. After washing three times, horseradish peroxidase labeled goat anti-rabbit IgG polyclonal antibody (abcam) was added, and this was incubated at room temperature for 1 hour. After washing three times, TMBZ (3,3′,5,5′-tetramethylbenzidine, KPL) solution was added to the wells, and this was incubated for 3 minutes at room temperature. Equal amounts of quenching solution (2 N H₂SO₄, FUJIFILM Wako) were added to the wells, and absorbance at 450 nm and 650 nm were read with a microplate reader (Thermo […]).
# Mouse = target: T3, Mouse; assay: ELISA
# T3 construct: also called mouse EphA4 extracellular domain-SEAP-His protein
# Procedure: as §3
# [4] = target: T4, monkey EphA4 extracellular domain-SEAP-His protein (monkey); assay: ELISA
# T4 construct: the fusion as a whole has none; not shown: SEAP-His part
# T4 sequence (chain, as listed by the source): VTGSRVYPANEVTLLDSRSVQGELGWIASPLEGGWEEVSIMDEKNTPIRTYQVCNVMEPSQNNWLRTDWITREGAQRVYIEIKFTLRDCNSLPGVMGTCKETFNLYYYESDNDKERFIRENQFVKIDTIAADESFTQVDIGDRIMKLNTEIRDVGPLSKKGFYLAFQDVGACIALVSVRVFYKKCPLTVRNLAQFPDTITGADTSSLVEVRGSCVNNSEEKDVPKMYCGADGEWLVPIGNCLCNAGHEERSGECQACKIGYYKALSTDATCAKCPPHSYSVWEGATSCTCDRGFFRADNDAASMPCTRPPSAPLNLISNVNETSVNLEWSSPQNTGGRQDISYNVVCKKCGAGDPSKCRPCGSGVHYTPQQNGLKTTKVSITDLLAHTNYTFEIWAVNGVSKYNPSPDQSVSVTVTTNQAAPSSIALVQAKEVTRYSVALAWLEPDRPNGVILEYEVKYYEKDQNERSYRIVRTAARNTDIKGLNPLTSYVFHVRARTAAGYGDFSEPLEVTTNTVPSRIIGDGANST
# Procedure: as §3
# [5] = target: T5, human EphA4 extracellular domain-SEAP-His protein (human); assay: ELISA
# T5 sequence (chain, as listed by the source limits assumed): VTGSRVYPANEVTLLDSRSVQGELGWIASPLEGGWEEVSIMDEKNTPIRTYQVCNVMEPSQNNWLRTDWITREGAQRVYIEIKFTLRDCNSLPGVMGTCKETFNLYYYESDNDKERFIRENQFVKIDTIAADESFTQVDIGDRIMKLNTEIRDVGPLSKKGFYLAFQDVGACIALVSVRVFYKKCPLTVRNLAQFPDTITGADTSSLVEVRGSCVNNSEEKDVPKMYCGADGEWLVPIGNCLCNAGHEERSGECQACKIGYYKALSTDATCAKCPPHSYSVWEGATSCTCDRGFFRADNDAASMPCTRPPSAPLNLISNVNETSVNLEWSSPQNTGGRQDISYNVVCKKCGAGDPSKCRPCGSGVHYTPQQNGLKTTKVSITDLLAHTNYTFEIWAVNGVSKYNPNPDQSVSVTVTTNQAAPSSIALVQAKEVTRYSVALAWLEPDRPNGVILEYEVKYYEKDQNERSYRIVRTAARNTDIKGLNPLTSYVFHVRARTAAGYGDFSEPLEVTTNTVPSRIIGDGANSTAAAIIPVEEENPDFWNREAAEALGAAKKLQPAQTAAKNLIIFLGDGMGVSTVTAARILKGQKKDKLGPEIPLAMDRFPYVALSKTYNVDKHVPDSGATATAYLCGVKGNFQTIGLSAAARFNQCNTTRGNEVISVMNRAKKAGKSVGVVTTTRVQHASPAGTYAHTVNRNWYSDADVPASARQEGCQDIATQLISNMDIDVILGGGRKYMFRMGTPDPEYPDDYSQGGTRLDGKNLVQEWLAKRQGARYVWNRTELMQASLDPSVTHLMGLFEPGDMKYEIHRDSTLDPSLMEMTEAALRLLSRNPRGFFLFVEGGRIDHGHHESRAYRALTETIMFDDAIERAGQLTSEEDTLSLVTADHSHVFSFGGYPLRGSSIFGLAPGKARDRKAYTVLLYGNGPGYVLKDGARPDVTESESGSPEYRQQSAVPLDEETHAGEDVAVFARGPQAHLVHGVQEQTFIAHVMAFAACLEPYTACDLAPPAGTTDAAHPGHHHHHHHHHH
# Procedure: as §3
# Rabbit = target: T6, Rabbit; assay: ELISA
# T6 construct: also called rabbit EphA4 extracellular domain-SEAP-His protein
# Procedure: as §3
# Rat = target: T7, Rat; assay: ELISA
# T7 construct: also called rat EphA4 extracellular domain-SEAP-His protein
# Procedure: as §3
# [6] = target: T1, human EphA4 extracellular …; assay: SPR Biacore T200, EphA4 ECD-MBP-His captured by anti-His antibody, antibody as analyte, 1:1 model, mean of three
# Procedure: as §2
# [7] = target: T1, human EphA4 extracellular …; assay: SPR Biacore T200, EphA4 ECD-MBP-His captured by anti-His antibody, antibody as analyte, 1:1 model, mean of three (exponent printed as -90, read as -09); mean of three experiments
# Procedure: as §2
# [8] = target: T4, monkey EphA4 extracellular …; assay: ELISA; remark: listed apart in the source
# [9] = target: T5, human EphA4 extracellular …; assay: ELISA; remark: listed apart in the source
Binder,absorbance (FN1),absorbance [1],absorbance (FN2),absorbance (MBP),absorbance [2],Kd [3],koff [3],kon [3],absorbance (SEAP),absorbance (Mouse),absorbance [4],absorbance [5],absorbance (Rabbit),absorbance (Rat),koff [6],kon [6],Kd [7],EC50 (read off the curve) [8],EC50 (read off the curve) [9],Kd [6]
"KPEP11_04 (antibody, V domains shown, Rabbit IgG/kappa; Used HRP-labeled as detection antibody in the sandwich ELISAs; also called anti-human EphA4 rabbit monoclonal antibody KPEP11_04; HRP-labeled KPEP11_04) VH: QEQLKESGGRLVTPGGSLTLTCTVSGIDLSSYAMSWVRQAPEKGLEWIGFINMYGTYYASWAKGRFTISRTSTTVDLKVTSLTTEDTATYFCVRGGRSPDYDIVSGDIWGPGTLVTVSS VL: YVMMTQTPSSVSEPVGGTVTIKCQASQNIYNSLAWYQQKPGQRPKLLIADASELASGVPQRFSGSGSGTQFTLTISDLECADAATYYCQSSSAGDSYVGGFGGGTEVVVKG",0.225,1.41,0.227,0.267,1.33,1.72 nM and 2.12 nM and 1.87 nM,0.004 s⁻¹ and 0.00378 s⁻¹ and 0.00389 s⁻¹,2.33e+06 M⁻¹ s⁻¹ and 1.78e+06 M⁻¹ s⁻¹ and 2.08e+06 M⁻¹ s⁻¹,0.05,0.044,1.21,1.26,0.039,0.044,0.00389 s⁻¹,2.06e+06 M⁻¹ s⁻¹,1.9 nM,~0.01 nM,~0.01 nM,–
"KPEP11_18 (antibody, V domains shown, Rabbit IgG/kappa; Used coated or HRP-labeled in the sandwich ELISAs; also called anti-human EphA4 rabbit monoclonal antibody KPEP11_18; HRP-labeled KPEP11_18) VH: QSLEESGGRLVTPGTPLTLTCTISGFSLSSFYINWVRQAPGRGLEWIGIIYPDIDATDYASWVKGRFTISKTSTTVDLKITSPTTEDTATYFCARSDVDYYTTRLDLWGQGTLVTVSS VL: DPMMTQTASPVSAAVGGTVSISCQSNKSVYSNWLSWFQQKPGQPPKLLIYGASTLASGVPSRFKGSGSGTQFTLTVSDVQCDDAATYFCLGGYRDNSDNAFGGGTEVVVKG",0.222,1.42,–,–,1.43,0.416 nM and 0.382 nM,0.00128 s⁻¹ and 0.00137 s⁻¹ and 0.00127 s⁻¹,3.06e+06 M⁻¹ s⁻¹ and 3.32e+06 M⁻¹ s⁻¹ and 3.44e+06 M⁻¹ s⁻¹,0.054,–,1.18,1.23,0.059,0.067,0.00127 s⁻¹,–,–,~0.01 nM,~0.01 nM,0.389 nM
"KPEP11_08 (antibody, Rabbit IgG/kappa; Used HRP-labeled as detection antibody in the sandwich ELISAs; also called anti-human EphA4 rabbit monoclonal antibody KPEP11_08; HRP-labeled KPEP11_08) heavy: QSLEESGGRLVTPGTPLTLTCTVSGFSLSSYHMSWVRQAPGKGLEWIGIIYRSGNTYYANWAKGRFTISKTSTTVDLKITSPTTEDTATYFCARESSTFYGMDLWGPGTLVTVSSGAPKAPSVFPLAPCCGDTPSSTVTLGCLVKGYLPEPVTVTWNSGTLTNGVRTFPSVRQSSGLYSLSSVVSVTSSSQPVTCNVAHPATNTKVDKTVAPSTCSKPTCPPPELLGGPSVFIFPPKPKDTLMISRTPEVTCVVVDVSQDDPEVQFTWYINNEQVRTARPPLREQQFNSTIRVVSTLPITHQDWLRGKEFKCKVHNKALPAPIEKTISKARGQPLEPKVYTMGPPREELSSRSVSLTCMINGFYPSDISVEWEKNGKAEDNYKTTPAVLDSDGSYFLYNKLSVPTSEWQRGDVFTCSVMHEALHNHYTQKSISRSPGK light: DPVLTQTASSVSAAVGGTVTINCQASQSVYGNNELAWYQQKPGQPPKLLIYTASSLASGVPSRFKGSGSGTEFTLTISDLECADAATYYCLGYKSDDYTFGGGTEVVVKGAPVAPTVLIFPPAADQVATGTVTIVCVANKYFPDVTVTWEVDGTTQTTGIENSKTPQNSADCTYNLSSTLTLTSTQYNSHKEYTCKVTQGTTSVVQSFNRGDC",0.283,1.31,0.265,0.3,0.292,1.51 nM and 1.67 nM and 1.36 nM,0.00214 s⁻¹,1.42e+06 M⁻¹ s⁻¹ and 1.24e+06 M⁻¹ s⁻¹ and 1.58e+06 M⁻¹ s⁻¹,0.072,0.071,–,1.15,0.057,0.065,0.00217 s⁻¹,1.44e+06 M⁻¹ s⁻¹,–,~0.02 nM,~0.02 nM,1.51 nM
"KPEP11_10 (antibody, Rabbit IgG/kappa; Used coated or HRP-labeled in the sandwich ELISAs; also called anti-human EphA4 rabbit monoclonal antibody KPEP11_10; HRP-labeled KPEP11_10) heavy: QSLEESGGRLVTPGTPLTLTCTVSGFSLSSYHMSWVRQAPGKGLEWIGIIYRSGNTYYANWAKGRFTISKTSTTVDLKITSPTTEDTATYFCARESSTFYGMDLWGPGTLVTVSSGAPKAPSVFPLAPCCGDTPSSTVTLGCLVKGYLPEPVTVTWNSGTLTNGVRTFPSVRQSSGLYSLSSVVSVTSSSQPVTCNVAHPATNTKVDKTVAPSTCSKPTCPPPELLGGPSVFIFPPKPKDTLMISRTPEVTCVVVDVSQDDPEVQFTWYINNEQVRTARPPLREQQFNSTIRVVSTLPITHQDWLRGKEFKCKVHNKALPAPIEKTISKARGQPLEPKVYTMGPPREELSSRSVSLTCMINGFYPSDISVEWEKNGKAEDNYKTTPAVLDSDGSYFLYNKLSVPTSEWQRGDVFTCSVMHEALHNHYTQKSISRSPGK light: AIKMTQTPSSVSAAVGGTVTINCQASQSVYGNNELAWYQQKPGQPPKLLIYTASSLASGVPSRFKGSGSGTEFTLTISDLECADAATYYCLGYKSDDYTFGGGTEVVVKGAPVAPTVLIFPPAADQVATGTVTIVCVANKYFPDVTVTWEVDGTTQTTGIENSKTPQNSADCTYNLSSTLTLTSTQYNSHKEYTCKVTQGTTSVVQSFNRGDC",0.329,1.35,0.325,0.334,0.34,1.36 nM and 1.23 nM,0.00196 s⁻¹ and 0.00198 s⁻¹,1.44e+06 M⁻¹ s⁻¹ and 1.58e+06 M⁻¹ s⁻¹,0.087,–,1.11,1.17,0.091,0.087,0.00196 s⁻¹,1.52e+06 M⁻¹ s⁻¹,–,~0.02 nM,~0.02 nM,1.3 nM
